From US20240199762A1 (PHILOGEN S P A, published 2024)

Columns and labels:
[1] = target: T1, canine FAP (caFAP) extracellular domain (ECD) (domestic dog (Canis familiaris)); experiment: ELISA, 120 nM caFAP-ECD coated on Maxisorp plates
T1 construct: also called caFAP-ECD
T1 chain: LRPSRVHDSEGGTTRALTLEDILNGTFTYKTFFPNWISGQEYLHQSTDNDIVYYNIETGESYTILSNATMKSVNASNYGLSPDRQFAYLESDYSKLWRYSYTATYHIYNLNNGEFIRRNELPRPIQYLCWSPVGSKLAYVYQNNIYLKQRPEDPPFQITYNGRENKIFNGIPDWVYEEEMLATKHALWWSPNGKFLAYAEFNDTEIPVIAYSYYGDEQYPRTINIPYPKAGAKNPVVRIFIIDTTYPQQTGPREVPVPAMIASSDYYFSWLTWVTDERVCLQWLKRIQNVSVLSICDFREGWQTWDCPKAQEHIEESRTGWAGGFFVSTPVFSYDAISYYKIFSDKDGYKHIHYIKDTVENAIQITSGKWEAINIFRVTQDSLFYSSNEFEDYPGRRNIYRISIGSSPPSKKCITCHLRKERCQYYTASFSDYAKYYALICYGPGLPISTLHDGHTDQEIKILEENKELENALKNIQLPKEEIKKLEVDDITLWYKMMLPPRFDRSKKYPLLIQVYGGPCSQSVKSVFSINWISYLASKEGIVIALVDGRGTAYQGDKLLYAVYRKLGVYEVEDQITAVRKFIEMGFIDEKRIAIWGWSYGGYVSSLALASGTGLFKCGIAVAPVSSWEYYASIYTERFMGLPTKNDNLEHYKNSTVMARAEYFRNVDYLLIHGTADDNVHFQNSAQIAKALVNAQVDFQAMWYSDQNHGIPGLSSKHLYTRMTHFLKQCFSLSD
Experimental: Cross-reactivity of the anti-hFAP antibodies with caFAP-ECD was tested using ELISA. 120 nM of caFAP-ECD was coated on Maxisorp plates overnight at 4° C. […] Specifically, the C5 antibody was employed in IgG2a format, while all other antibodies, including the 7NP2 antibody, were in IgG1 format. The differences between the IgG2a and IgG1 formats are not expected to affect binding to FAP. After 3 washes with PBS, binding of the antibodies to caFAP-ECD was detected using an anti-human or anti-murine antibody HRP conjugate.

[2] = target: T2, human FAP-ECD (extracellular domain) recombinant fragment containing a C-terminal His6 tag (human, UniProt Q12884 26-760, randomly biotinylated with NHS ester-activated biotin (as used on the SA chip and Streptawell plates)); experiment: epitope ELISA on biotinylated human FAP on Streptawell plates
T2 construct: also called biotinylated human FAP-ECD; biotinylated human FAP
T2 sequence: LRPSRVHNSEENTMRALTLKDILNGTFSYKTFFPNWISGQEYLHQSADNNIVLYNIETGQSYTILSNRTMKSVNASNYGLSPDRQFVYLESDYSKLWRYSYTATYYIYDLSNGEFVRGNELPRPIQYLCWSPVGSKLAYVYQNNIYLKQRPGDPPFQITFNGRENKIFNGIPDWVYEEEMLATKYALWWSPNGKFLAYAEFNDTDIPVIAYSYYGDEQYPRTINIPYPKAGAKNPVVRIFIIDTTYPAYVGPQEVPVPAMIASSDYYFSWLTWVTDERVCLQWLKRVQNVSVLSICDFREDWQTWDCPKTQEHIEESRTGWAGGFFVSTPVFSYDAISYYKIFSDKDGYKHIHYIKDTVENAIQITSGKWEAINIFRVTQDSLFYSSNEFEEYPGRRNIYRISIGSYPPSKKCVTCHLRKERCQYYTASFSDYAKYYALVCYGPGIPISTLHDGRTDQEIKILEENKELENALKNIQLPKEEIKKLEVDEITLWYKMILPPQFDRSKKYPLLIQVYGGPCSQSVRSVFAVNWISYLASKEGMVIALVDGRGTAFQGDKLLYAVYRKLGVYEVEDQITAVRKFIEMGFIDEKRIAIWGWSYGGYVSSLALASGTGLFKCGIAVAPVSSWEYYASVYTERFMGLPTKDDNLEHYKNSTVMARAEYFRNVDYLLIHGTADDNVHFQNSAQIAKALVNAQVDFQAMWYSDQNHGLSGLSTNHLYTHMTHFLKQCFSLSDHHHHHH
Experimental: To evaluate binding, 100 nM of biotinylated human FAP were coated on Streptawell plates for 30 min at 37° C.
The C5 antibody in IgG2a format was incubated together with the 7NP2 antibody in IgG1 format, the F5 antibody in IgG1 format (WO2016/116399), the ESC11 antibody in IgG1 format (Fisher et al., (2012) Clin Cancer Res; 18(22)), or the (negative control) antibody KSF in IgG1 format for 1.5 h at room temperature at a concentration of 5 μg/mL in the antigen-coated wells. After 3 washes with PBS, binding of the antibodies to human FAP was detected using anti-human or anti-murine HRP conjugates (FIG. 7).

binding result [1]: no binding (tested: 5 µg/mL)
binding result [2]: no binding (tested: 5 µg/mL)
B1: anti-hen egg lysozyme antibody KSF in IgG1 format (antibody, V domains shown)
VH: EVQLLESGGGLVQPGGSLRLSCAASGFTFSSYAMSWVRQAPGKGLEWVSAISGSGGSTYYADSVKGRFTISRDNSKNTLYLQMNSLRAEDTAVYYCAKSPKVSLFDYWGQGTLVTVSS
VL: SSELTQDPAVSVALGQTVRITCQGDSLRSYYASWYQQKPGQAPVLVIYGKNNRPSGIPDRFSGSSSGNTASLTITGAQAEDEADYYCQSSPLNRLAVVFGGGTKLTVLG
notes: Negative control; It was conjugated to FITC in the immunofluorescence and ex vivo experiments; also called KSF IgG1; KSF(IgG1)
